Non-standard residues stand in square brackets, D forms with d. No end group written: not given here. Sar = CNCC(=O)O
Target: T1, human Angiotensin II type 1 receptor (AT1R) (human, UniProt P30556 1-359, limits assumed)
T1 sequence (looked up): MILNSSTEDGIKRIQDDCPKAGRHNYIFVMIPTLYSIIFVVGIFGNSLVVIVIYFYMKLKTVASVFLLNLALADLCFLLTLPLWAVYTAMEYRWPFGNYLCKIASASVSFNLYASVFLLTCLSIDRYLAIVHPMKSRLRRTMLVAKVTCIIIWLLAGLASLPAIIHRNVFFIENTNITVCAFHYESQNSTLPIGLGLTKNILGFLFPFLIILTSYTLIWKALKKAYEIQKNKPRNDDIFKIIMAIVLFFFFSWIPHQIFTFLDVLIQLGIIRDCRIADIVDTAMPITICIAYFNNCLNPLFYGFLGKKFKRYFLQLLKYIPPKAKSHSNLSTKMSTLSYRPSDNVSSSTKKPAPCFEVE
Experiment: cell-based or functional assay

βarr activation by the AT1R, potency relative to AngII: 10 times less potent than AngII
Binder: [Sar]RVY[Cys(Et)]HPL [CORET: Sar^1,Cys(Et)^5,Leu^8-AngII]
